Test results taken from patent US6838262.

Target: human RANK, full length, expressed in or on cells (human) (UniProt Q9Y6Q6)
Assay: cell-based or functional assay

Sequence of UniProt Q9Y6Q6 (Q9Y6Q6 26-616): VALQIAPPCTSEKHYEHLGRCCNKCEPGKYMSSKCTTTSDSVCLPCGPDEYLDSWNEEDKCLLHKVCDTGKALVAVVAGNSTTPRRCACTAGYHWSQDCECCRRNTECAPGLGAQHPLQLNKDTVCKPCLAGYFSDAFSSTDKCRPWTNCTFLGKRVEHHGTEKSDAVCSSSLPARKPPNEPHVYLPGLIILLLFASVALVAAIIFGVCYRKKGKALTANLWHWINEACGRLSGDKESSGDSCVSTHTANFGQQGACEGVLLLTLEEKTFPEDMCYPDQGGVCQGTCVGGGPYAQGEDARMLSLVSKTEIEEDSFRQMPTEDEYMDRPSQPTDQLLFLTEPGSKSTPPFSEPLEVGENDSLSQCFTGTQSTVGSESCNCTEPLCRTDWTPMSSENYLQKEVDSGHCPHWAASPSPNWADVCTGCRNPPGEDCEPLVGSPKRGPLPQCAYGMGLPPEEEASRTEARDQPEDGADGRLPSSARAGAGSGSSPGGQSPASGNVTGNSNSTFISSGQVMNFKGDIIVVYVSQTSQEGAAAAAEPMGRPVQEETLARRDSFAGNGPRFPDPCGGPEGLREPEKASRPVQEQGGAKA

allo-stimulatory capacity of CD1a+ DC in a mixed lymphocyte reaction (MLR): > 10 fold
Substance: RANKL as added to human dendritic cell cultures (Example 13; species and construct not stated) (ligand)
